Laboratory results as given in PMC3125165.

Target: Escherichia coli FtsZ (Escherichia coli) (UniProt P0A9A6)

Substance: Escherichia coli FtsZ (from UniProt P0A9A6 1-383) (natural protein)
- Pi released by GTP hydrolysis (MESG/PNP phosphate assay), endpoint as percent of the theoretical maximum, pH 6.0, 0.2 mM GTP, 11 uM FtsZ: 90%
- Pi released by GTP hydrolysis (MESG/PNP phosphate assay), endpoint as percent of the theoretical maximum, pH 6.5, 0.2 mM GTP, 11 uM FtsZ: 96%
- Pi released by GTP hydrolysis (MESG/PNP phosphate assay), endpoint as percent of the theoretical maximum, pH 7.0, 0.2 mM GTP, 11 uM FtsZ: 87%
